From US20120322725A1 (INDIANA UNIVERSITY RESEARCH AND TECHNOLOGY, published 2012)
Bridge positions count the residues as written; N and C are the ends. Square brackets hold non-standard residues; d marks the D form. Ends that are not written are not given here. * marks the point of attachment. Abu(4-SO3H) = N[C@@H](CCS(=O)(=O)O)C(=O)O; PhLac = O=C(O)[C@@H](O)Cc1ccccc1; Carboxymethyl = O=C(O)C*; NSG‑1 = not defined here; NSG‑2 = not defined here

Tests used:
[1] = target: T1, glucagon receptor (UniProt P47871 26-477, limits assumed); assay: cell-based or functional assay
[2] = target: T1, glucagon receptor; assay: assay not named in Table F; taken as receptor binding
[3] = target: T1, glucagon receptor; assay: cell-based or functional assay; remark: listed apart in the source
[4] = target: T1, glucagon receptor; assay: receptor binding, method not described
[5] = target: T1, glucagon receptor; assay: cell-based or functional assay; remark: listed apart in the source
[6] = target: T1, glucagon receptor; assay: receptor binding, method not described; remark: listed apart in the source
[7] = target: T1, glucagon receptor; assay: cell-based or functional assay; remark: listed apart in the source
[8] = target: T1, glucagon receptor; assay: column IC50(nM) beside the cAMP columns of Table H; taken as receptor binding

T1 sequence (P47871 26-477 limits assumed): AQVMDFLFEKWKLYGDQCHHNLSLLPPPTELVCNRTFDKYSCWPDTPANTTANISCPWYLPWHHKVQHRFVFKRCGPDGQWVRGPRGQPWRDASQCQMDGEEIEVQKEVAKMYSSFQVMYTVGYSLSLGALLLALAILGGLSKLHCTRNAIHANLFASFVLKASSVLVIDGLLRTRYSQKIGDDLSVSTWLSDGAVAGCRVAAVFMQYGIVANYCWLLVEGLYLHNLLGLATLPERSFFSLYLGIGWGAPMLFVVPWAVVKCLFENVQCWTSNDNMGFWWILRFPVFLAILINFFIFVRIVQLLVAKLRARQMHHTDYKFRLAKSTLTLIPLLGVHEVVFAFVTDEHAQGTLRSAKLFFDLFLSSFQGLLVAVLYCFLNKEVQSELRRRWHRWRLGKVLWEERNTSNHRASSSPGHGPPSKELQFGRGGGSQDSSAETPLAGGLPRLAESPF

| Binder | IC50 [2] [µM] | IC50(nM) (cAMP, inhibit Glucagon) 0.1 nM or 0.2 nM [3] | IC50 [4] [µM] | further results |
| --- | --- | --- | --- | --- |
| AEGTFTSEYSKYLDERRAKDFVQWLMDT (lactam 15-19) [[A2E3, E16K20(Lactam),D28]G(2~29)] |  |  |  | Glucagon IC50 [1]: 0.063 µM |
| SQGTFTS[NSG‑1]YSKYLDSRRAQDFVQWLMNT-NH2 (reading uncertain, also called peptide no) [[(NSG-1)^9]Glucagon(aa2-29)-NH2] | 0.983 |  |  |  |
| XTSDYSKYLDSRRAQDFVQWLMDT (PLA at position 6, N-terminal to residues 7-29; C-terminal amide) [[PLA6, D9, D28]Glucagon(aa6-29)-NH2] |  | 1.32 | 0.009 |  |
| XTSDYSKYLDSRRAQDFVQWLMNT (HELM PEPTIDE1{[O=C([C@@H](O)Cc1ccccc1)[*:2]].T.S.D.Y.S.K.Y.L.D.S.R.R.A.Q.D.F.V.Q.W.L.M.N.T.[am]}$$$$V2.0; N-terminus assumed; SMILES CSCC[C@H](NC(=O)[C@H](CC(C)C)NC(=O)[C@H](Cc1c[nH]c2ccccc12)NC(=O)[C@H](CCC(N)=O)NC(=O)[C@@H](NC(=O)[C@H](Cc1ccccc1)NC(=O)[C@H](CC(=O)O)NC(=O)[C@H](CCC(N)=O)NC(=O)[C@H](C)NC(=O)[C@H](CCCNC(=N)N)NC(=O)[C@H](CCCNC(=N)N)NC(=O)[C@H](CO)NC(=O)[C@H](CC(=O)O)NC(=O)[C@H](CC(C)C)NC(=O)[C@H](Cc1ccc(O)cc1)NC(=O)[C@H](CCCCN)NC(=O)[C@H](CO)NC(=O)[C@H](Cc1ccc(O)cc1)NC(=O)[C@H](CC(=O)O)NC(=O)[C@H](CO)NC(=O)[C@@H](NC(=O)[C@@H](O)Cc1ccccc1)[C@@H](C)O)C(C)C)C(=O)N[C@@H](CC(N)=O)C(=O)N[C@H](C(N)=O)[C@@H](C)O) [[PLA6, D9]Glucagon(aa6-29)-NH2] |  | 6.9 | 0.0138 |  |
| XTSDYSKYLDSRRAQDFVQWLMNT (HELM PEPTIDE1{[O=C([C@@H](O)Cc1ccccc1)[*:2]].T.S.D.Y.S.K.Y.L.D.S.R.R.A.Q.D.F.V.Q.W.L.M.N.T}$$$$V2.0; N-terminus assumed; SMILES CSCC[C@H](NC(=O)[C@H](CC(C)C)NC(=O)[C@H](Cc1c[nH]c2ccccc12)NC(=O)[C@H](CCC(N)=O)NC(=O)[C@@H](NC(=O)[C@H](Cc1ccccc1)NC(=O)[C@H](CC(=O)O)NC(=O)[C@H](CCC(N)=O)NC(=O)[C@H](C)NC(=O)[C@H](CCCNC(=N)N)NC(=O)[C@H](CCCNC(=N)N)NC(=O)[C@H](CO)NC(=O)[C@H](CC(=O)O)NC(=O)[C@H](CC(C)C)NC(=O)[C@H](Cc1ccc(O)cc1)NC(=O)[C@H](CCCCN)NC(=O)[C@H](CO)NC(=O)[C@H](Cc1ccc(O)cc1)NC(=O)[C@H](CC(=O)O)NC(=O)[C@H](CO)NC(=O)[C@@H](NC(=O)[C@@H](O)Cc1ccccc1)[C@@H](C)O)C(C)C)C(=O)N[C@@H](CC(N)=O)C(=O)N[C@H](C(=O)O)[C@@H](C)O) [[PLA6, D9]Glucagon(aa6-29)-COOH] |  | 13.2 | 0.0155 |  |
| SQGTFTSXYSKYLDSRRAQDFVQWLMNT (homoglutamic acid at position 9; C-terminal amide, also called peptide no) [[hGlu^9]Glucagon(aa2-29)-NH2] | 0.0081 |  |  |  |
| SQGTFTSXYSKYLDSRRAQDFVQFLLNT (HELM PEPTIDE1{S.Q.G.T.F.T.S.[O=C([C@H](CCS(=O)(=O)O)N[*:1])[*:2]].Y.S.K.Y.L.D.S.R.R.A.Q.D.F.V.Q.F.L.L.N.T.[am]}$$$$V2.0; N-terminus assumed; SMILES CC(C)C[C@H](NC(=O)[C@H](Cc1ccc(O)cc1)NC(=O)[C@H](CCCCN)NC(=O)[C@H](CO)NC(=O)[C@H](Cc1ccc(O)cc1)NC(=O)[C@H](CCS(=O)(=O)O)NC(=O)[C@H](CO)NC(=O)[C@@H](NC(=O)[C@H](Cc1ccccc1)NC(=O)[C@@H](NC(=O)CNC(=O)[C@H](CCC(N)=O)NC(=O)[C@@H](N)CO)[C@@H](C)O)[C@@H](C)O)C(=O)N[C@@H](CC(=O)O)C(=O)N[C@@H](CO)C(=O)N[C@@H](CCCNC(=N)N)C(=O)N[C@@H](CCCNC(=N)N)C(=O)N[C@@H](C)C(=O)N[C@@H](CCC(N)=O)C(=O)N[C@@H](CC(=O)O)C(=O)N[C@@H](Cc1ccccc1)C(=O)N[C@H](C(=O)N[C@@H](CCC(N)=O)C(=O)N[C@@H](Cc1ccccc1)C(=O)N[C@@H](CC(C)C)C(=O)N[C@@H](CC(C)C)C(=O)N[C@@H](CC(N)=O)C(=O)N[C@H](C(N)=O)[C@@H](C)O)C(C)C, also called Cmpd) [[desHis^1, hCys^9(SO3^-), Phe^25, Leu^27]Glucagon-NH2] |  |  |  | cAMP Induction EC50 [5]: 0.43 µM; IC50 [6]: 0.0139 µM |
| SQGTTSXYSKYLDSRRAQDFVQFLLNT (HELM PEPTIDE1{S.Q.G.T.T.S.[O=C([C@H](CCS(=O)(=O)O)N[*:1])[*:2]].Y.S.K.Y.L.D.S.R.R.A.Q.D.F.V.Q.F.L.L.N.T.[am]}$$$$V2.0; N-terminus assumed; SMILES CC(C)C[C@H](NC(=O)[C@H](Cc1ccc(O)cc1)NC(=O)[C@H](CCCCN)NC(=O)[C@H](CO)NC(=O)[C@H](Cc1ccc(O)cc1)NC(=O)[C@H](CCS(=O)(=O)O)NC(=O)[C@H](CO)NC(=O)[C@@H](NC(=O)[C@@H](NC(=O)CNC(=O)[C@H](CCC(N)=O)NC(=O)[C@@H](N)CO)[C@@H](C)O)[C@@H](C)O)C(=O)N[C@@H](CC(=O)O)C(=O)N[C@@H](CO)C(=O)N[C@@H](CCCNC(=N)N)C(=O)N[C@@H](CCCNC(=N)N)C(=O)N[C@@H](C)C(=O)N[C@@H](CCC(N)=O)C(=O)N[C@@H](CC(=O)O)C(=O)N[C@@H](Cc1ccccc1)C(=O)N[C@H](C(=O)N[C@@H](CCC(N)=O)C(=O)N[C@@H](Cc1ccccc1)C(=O)N[C@@H](CC(C)C)C(=O)N[C@@H](CC(C)C)C(=O)N[C@@H](CC(N)=O)C(=O)N[C@H](C(N)=O)[C@@H](C)O)C(C)C, also called Cmpd) [[desHis^1, desPhe^6, hCys^9(SO3^-), Phe^25, Leu^27]Glucagon-NH2] |  |  |  | cAMP Induction EC50 [5]: 3.21 µM; cAMP Inhibition IC50 [5]: 9.22 µM; IC50 [6]: 0.0533 µM |
| [PhLac]TS[Abu(4-SO3H)]YSKYLDSRRAQDFVQWLMNT-NH2 [[PLA6, hCys(SO3)9]Glucagon(aa6-29)-NH2] |  | 40.2 | 0.0142 |  |
| SQGTFTSC(Carboxymethyl)YSKYLDSRRAQDFVQWLMNT-NH2 (N-terminus assumed; SMILES CSCC[C@H](NC(=O)[C@H](CC(C)C)NC(=O)[C@H](Cc1c[nH]c2ccccc12)NC(=O)[C@H](CCC(N)=O)NC(=O)[C@@H](NC(=O)[C@H](Cc1ccccc1)NC(=O)[C@H](CC(=O)O)NC(=O)[C@H](CCC(N)=O)NC(=O)[C@H](C)NC(=O)[C@H](CCCNC(=N)N)NC(=O)[C@H](CCCNC(=N)N)NC(=O)[C@H](CO)NC(=O)[C@H](CC(=O)O)NC(=O)[C@H](CC(C)C)NC(=O)[C@H](Cc1ccc(O)cc1)NC(=O)[C@H](CCCCN)NC(=O)[C@H](CO)NC(=O)[C@H](Cc1ccc(O)cc1)NC(=O)[C@H](CSCC(=O)O)NC(=O)[C@H](CO)NC(=O)[C@@H](NC(=O)[C@H](Cc1ccccc1)NC(=O)[C@@H](NC(=O)CNC(=O)[C@H](CCC(N)=O)NC(=O)[C@@H](N)CO)[C@@H](C)O)[C@@H](C)O)C(C)C)C(=O)N[C@@H](CC(N)=O)C(=O)N[C@H](C(N)=O)[C@@H](C)O, also called peptide no) [[(CSA-1)^9]Glucagon(aa2-29)-NH2] | 0.0127 |  |  |  |
| SQGTFTSCYSKYLDSRRAQDFVQWLMNT (HELM PEPTIDE1{S.Q.G.T.F.T.S.[O=C(O)CCSC[C@H](N[*:1])C(=O)[*:2]].Y.S.K.Y.L.D.S.R.R.A.Q.D.F.V.Q.W.L.M.N.T.[am]}$$$$V2.0; N-terminus assumed; SMILES CSCC[C@H](NC(=O)[C@H](CC(C)C)NC(=O)[C@H](Cc1c[nH]c2ccccc12)NC(=O)[C@H](CCC(N)=O)NC(=O)[C@@H](NC(=O)[C@H](Cc1ccccc1)NC(=O)[C@H](CC(=O)O)NC(=O)[C@H](CCC(N)=O)NC(=O)[C@H](C)NC(=O)[C@H](CCCNC(=N)N)NC(=O)[C@H](CCCNC(=N)N)NC(=O)[C@H](CO)NC(=O)[C@H](CC(=O)O)NC(=O)[C@H](CC(C)C)NC(=O)[C@H](Cc1ccc(O)cc1)NC(=O)[C@H](CCCCN)NC(=O)[C@H](CO)NC(=O)[C@H](Cc1ccc(O)cc1)NC(=O)[C@H](CSCCC(=O)O)NC(=O)[C@H](CO)NC(=O)[C@@H](NC(=O)[C@H](Cc1ccccc1)NC(=O)[C@@H](NC(=O)CNC(=O)[C@H](CCC(N)=O)NC(=O)[C@@H](N)CO)[C@@H](C)O)[C@@H](C)O)C(C)C)C(=O)N[C@@H](CC(N)=O)C(=O)N[C@H](C(N)=O)[C@@H](C)O, also called peptide no) [[(CSA-2)^9]Glucagon(aa2-29)-NH2] | 0.0133 |  |  |  |
| SQGTFTS[Abu(4-SO3H)]YSKYLDSRRAQDFVQWLMNT-NH2 [[hCys^9(SO3H)]Glucagon(aa2-29)-NH2] |  |  |  | cAMP IC50 [7]: 0.147 µM; IC50 [8]: 0.0132 µM |
| SQGTFTS[NSG‑2]YSKYLDSRRAQDFVQWLMNT-NH2 (reading uncertain, also called peptide no) [[(NSG-2)^9]Glucagon(aa2-29)-NH2] | 2.35 |  |  |  |
